One data set deals with T1, PD-L1 proteins (Homo sapiens, UniProt Q9NZQ7).
T1 construct: purchased R&D systems
The experiment in a line: Surface plasmon resonance (SPR) binding to immobilized PD-L1. The protocol:
Surface plasma resonance (SPR). SPR analysis was done using a BIAcore™ X (Pharmacia Biosensor AB, Uppsala, Sweden). In short, PD-L1 proteins (R&D systems) were immobilized onto carboxylated dextran-coated gold film surface of sensor chip (CM5 sensor chip, GE Healthcare) through EDC/NHS chemistry. 30 μL of sample solution was injected at a flow rate of […]. Sample solution was allowed to flow into both channels (channel 1 for reference, channel 2 with PD-L1), and the final SPR sensorgrams were obtained by subtracting the […].
On the technique in general: In SPR one partner is held on a chip, and binding of the other changes the refractive index at the surface.

Another data set has as its target fβH2_mt/PD-L1 complex (Homo sapiens, UniProt Q9NZQ7). The experiment in a line: Fluorescence polarization (FP) competition assay. In kind it is binding. Conditions: 10 nM, PD-L1, 2 μM, FIG. 15. The protocol:
Fluorescence polarization (FP) assay. FP assay in PBS was used the PD-L1 binding and competition assays (λex=480 nm; λem=535 nm). Fluorescence anisotropy measurements were performed at room temperature, in a 384-well plate, and using an Infinite® M1000 Pro microplate reader (Tecan). A fβH2_mt/PD-L1 complex was used for the FP competition assay after 30 min incubation time and titrated with the competitors.

Data set [1] concerns MCF-7 cells (with a low level of PD-L1 expression). The data set is described as follows: Fluorescence microscopy of cell interaction, MCF-7 cells. In kind it is cell-based, Human. The note with it: treated 1 h. The method, then: (§1) Cell culture. Human renal cell carcinoma (RCC) cell line, 786-O, and breast cancer cell line, MCF-7, were utilized as high- and low-PD-L1 expressing cancer cell models, respectively. The human T lymphocyte cell line, Jurkat, was used in this study as a representative PD-1-expressing immune cells. 786-O and Jurkat T cells were cultured in RPMI media, while MCF-7 cells were grown in DMEM media. All cell culture media were supplemented with 1% (v/v) penicillin/streptomycin (P/S) and 10% (v/v) fetal bovine serum (FBS). Cells were incubated under humidified atmosphere containing 5% CO2 at 37° C.

Data set [2] has as its system 786-O cells (a PD-L1 overexpressing cell line). The data set is described as follows: Fluorescence microscopy of cell interaction, 786-O cells. It counts as cell-based, Human. The protocol:
as §1

The next data set relates to 786-O cells. The data set is described as follows: Chemosensitivity assay with doxorubicin in cancer cell/Jurkat T cell co-culture. In kind it is cell-based, Human. Conditions: 786-O cells co-cultured with Jurkat T cells, then DOX; FIG. 22. The protocol:
as §1
Chemosensitivity Assay. Chemosensitivity assay was performed by measuring the synergistic cytotoxicity effect of immune checkpoint inhibitors, together with chemotherapeutic drug, doxorubicin. Cancer cells were plated in 96-well plates (5,000 cells/well) and incubated for 48 h. Cancer cells and Jurkat T cells were pre-treated with IFNγ and PHA/PMA as aforementioned. Cancer cells were then stained with calcein AM (1.5 μM), followed by 2 h treatment with ICIS. The cells were co-cultured for another 24 h in a 1:4 ratio, prior to doxorubicin (5 μM) treatment. The effect of each ICI on cancer cell survival following doxorubicin treatment (2 h) was analyzed based on changes in fluorescent intensity.

“Also recorded” adds a separate entry of the source. Residues, ends and D or L forms follow the SMILES beside them. No end group written: not given here.

T1 sequence (Q9NZQ7 19-290): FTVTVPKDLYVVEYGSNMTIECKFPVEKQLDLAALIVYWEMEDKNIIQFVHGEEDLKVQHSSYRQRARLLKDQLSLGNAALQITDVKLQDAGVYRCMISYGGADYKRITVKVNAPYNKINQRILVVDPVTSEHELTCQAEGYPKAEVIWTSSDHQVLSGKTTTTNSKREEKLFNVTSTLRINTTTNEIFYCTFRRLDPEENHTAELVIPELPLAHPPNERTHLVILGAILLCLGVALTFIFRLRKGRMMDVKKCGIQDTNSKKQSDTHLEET
Chain of fβH2_mt/PD-L1 complex (Q9NZQ7 19-239 limits assumed, one chain of several): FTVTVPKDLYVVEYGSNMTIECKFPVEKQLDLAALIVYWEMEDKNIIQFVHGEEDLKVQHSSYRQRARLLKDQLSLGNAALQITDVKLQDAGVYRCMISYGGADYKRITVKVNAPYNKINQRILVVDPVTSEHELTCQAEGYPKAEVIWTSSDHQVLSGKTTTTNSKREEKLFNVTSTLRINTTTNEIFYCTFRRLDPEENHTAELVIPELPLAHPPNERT

For `CC(C)[C@H](NC(=O)[C@@H](NC(=O)[C@@H](N)Cc1c[nH]cn1)C(C)C)C(=O)N[C@@H](Cc1c[nH]c2ccccc12)C(=O)N[C@@H](Cc1c[nH]cn1)C(=O)N[C@@H](CCCNC(=N)N)C(=O)N[C@@H](CCC(=O)O)C(=O)N[C@@H](CO)C(=O)N1CCC[C@H]1C(=O)N[C@@H](CO)C(=O)NCC(=O)N[C@@H](CCC(N)=O)C(=O)N[C@H](C(=O)N[C@@H](CC(=O)O)C(=O)N[C@H](C(=O)N[C@@H](CCCCN)C(=O)N[C@@H](C)C(=O)N[C@@H](C)C(N)=O)[C@@H](C)O)[C@@H](C)O` [βH2_mt, HVVWHRESPSGQTDTKAA] (H-HVVWHRESPSGQTDTKAA-NH2; N-terminus and C-terminus assumed), the kon on PD-L1 proteins (SPR, read-out: association rate constant (ka)) was found to be 1070 M⁻¹ s⁻¹.
As to “G7-βH2_mt: βH2_mt peptides attached to the surface of generation seven (G7) PAMAM dendrimers, rhodamine labelled; about 30 peptides per dendrimer (HVVWHRESPSGQTDTKAA; also: attached to surface of G7 PAMAM dendrimers, about 30 peptides per dendrimer, rhodamine labelled)”, in the data set with fβH2_mt/PD-L1 complex, the “displacement of fβH2_mt from PD-L1 / complex integrity” value is recorded as “dose-dependent displacement of fβH2_mt from PD-L1; also recorded: more effective competitiveness than aPDL1 antibodies”. In addition, the “cell interaction (Rhodamine fluorescence)” value is “interacted significantly less” in data set [1] and “strong cell interactions” in data set [2] (786-O cells, treated 1 h). Further, the “PD-L1 selectivity (786-O vs MCF-7 cells)” value in data set [2] (fluorescence microscopy, 786-O vs MCF-7) is “high PD-L1 selectivity”. The “decrease of cell viability compared to cells treated with doxorubicin only” value in the data set with 786-O cells is recorded as 8.4±3.8%. In addition, the “PD-L1 affinity relative to βH2_mt” value in the data set with PD-L1 proteins (SPR) is “five orders of magnitude higher”. Moreover, the “association rate constant (ka)” value with PD-L1 proteins (SPR) is recorded as 2.52×10^5. The “PD-L1 affinity by SPR sensorgram (comparison in words)” value with PD-L1 proteins (immobilized PD-L1 proteins, FIG. 4 and 5) is listed as “higher affinity to immobilized PD-L1 proteins than G7-βH1_mt; also recorded: higher than that of the wildtype βH2-dendrimer conjugate control (G7-βH2_wt)”.
